Laboratory results reported in patent publication US20220073643A1 (NANJING GENSCRIPT BIOTECH, published 2022).
Positions count from the first letter of the chain named. Read-outs that look alike come from different tables or passages of the source.

B1: chimeric 207F8G5 (antibody, human IgG1, kappa, V domains shown)
VH: QAYLQQSGAELVRSGASVKMSCKASGFTFTSYNIHWVKQTPGQGLEWIGYISPGNGGSNYNLKFKDKATLTSATSSSTAYMQISSLTSEDSAVYFCATGRGFAYWGQGTLVTVSA
VL: DIVMTQSPSSLTVTPGEKVTMSCKSSQSLFNSGNQKNYLIWYQQKPGQPPKLLIYRASTRDSGVPDRFTGSGSGTDFTLTISNVQAEDLAIYYCQNDYSYPLTFGAGTKLELKR
notes: chimeric, human IgG1/kappa constant regions; also called 207F8G5-Chimeric
B2: chimeric 265E6G2 (antibody, human IgG1, kappa, V domains shown)
VH: QAYLQQSGAELVRSGASVKMSCKASGYTFTSYNMHWVKQTPGQGLEWIGYIYPGNGGTNYNQKFKGKATLTADTSSSTAYMQISSLTSEDSAVYFCARDYYGNSFAYWGQGTLVTVSA
VL: B1 VL with I2L, P15A, F30L, I40T, R56W, D61E, V84I, I91V, T103P, K113R
notes: chimeric, human IgG1/kappa constant regions
B3: chimeric 418G6A5 (antibody, human IgG1, kappa, V domains shown)
VH: DVQLVESGGGLVQPGGSRKLSCVASGFTFSSFGMHWVRQAPEKGLEWVAYISSGSSPMYYADTVKGRFTISRDNPKNTLFLQMTSLRSEDTAMYFCARIYYGNSFAYWGQGTLVTVSA
VL: B1 VL with P15A, F30L, I40T, R56W, D61E, N83S, I91V, D97A
notes: as for B2
B4: chimeric 253E4F7 (antibody, human IgG1, kappa, V domains shown)
VH: EIQLQQSGPELMKPGASVKMSCKASGYSFTSYYIHWVKQSHGKSLEWIGYIDPFNGGTRYNQKFEGKATLTVDKSSTTAYMHLSSLTSEDSTVYYCASLRFLAYWGQGTLVTVSA
VL: B1 VL with P15A, S22T, F30L, I40T, L52V, Y55S, D61Q, N83S, I91V
notes: as for B2
B5: chimeric 185F2G12 (antibody, human IgG1, kappa, V domains shown)
VH: QAYLQQSGAELVRSGASVKMSCKASGYTFTSYNMHWVRQTPGQGLEWIGYIYPGNGGTNYSQKFKGKASLTADTSSTTAYMQISSLTSEDSAVYFCATGRGFAYWGQGTLVTVSA
VL: B1 VL with P15A, M21L, S32T, I40T, Y55F, D61E, S73F, N83S, I91V, Y98F
notes: as for B2
B6: chimeric 407D8G1 (antibody, human IgG1, kappa, V domains shown)
VH: DVQLVESGGGLVQPGGSRKLSCAASGFTFSGFGMHWIRQTPEKGLEWVAYISSGSRPIYYADTVQGRFTISRDNPKNTLFLQMTSLRSEDTAMYFCARFYYGNSFDHWGQGTLVTVSS
VL: B1 VL with S10F, P15A, F30L, I40T, R56W, D61E, N83S, I91L, D97A, Y100F
notes: as for B2
B7: chimeric 262C7C10 (antibody, human IgG1, kappa, V domains shown)
VH: B2 VH with S31N, M34I, T58N, N59Y, S77I
VL: B1 VL with P15A, S22N, F30L, I40T, R56W, D61E, N83S, S99Y
notes: as for B2
B8: chimeric 237D2A4 (antibody, human IgG1, kappa, V domains shown)
VH: QVQLKESGPGLVAPSQSLSITCTVSGFSLTSYGVSWVRQPPGKGLEWLGVIWGDGSTNYHSTLISRLRISKDKSKSQVFLKLNSLQTDDTATYYCAKAGRGNALDYWGQGTSVTVSS
VL: B1 VL with P15A, F30L, I40T, R56W, D61E, N83S, I91V, Y100F
notes: chimeric, human IgG1/kappa constant regions; also called 237D2A4-Chimeric
B9: chimeric 418D2F9 (antibody, human IgG1, kappa, V domains shown)
VH: B3 VH with V23A, S52N, S53T, P57T, M58I, F95Y, A106V
VL: B1 VL with P15A, F30L, I40T, R56W, D61E, N83S, I91V
notes: as for B2
B10: chimeric 393C2C5 (antibody, human IgG1, kappa, V domains shown)
VH: B3 VH with V23A, M58I, R98T, I99F
VL: DIVMTQSPSSLTVTAGEKVTMSCKSSQTLLNSGNQKNYLTWYQQKSGQPPKLLIYWASTRESGVPDRFTGSGSGTDFTLTISSVQAEDLAVYYCQNAYSYPVTFGSGTKVELKR
notes: chimeric, human IgG1/kappa constant regions; also called 393C2C5A
B11: chimeric 429H6C5 (antibody, human IgG1, kappa, V domains shown)
VH: DVQLVESGGGLVQPGGSRKLSCAASGFTFSSFGMHWVRQAPEKELEWVAYISSGSSTIYYAHTVKGRFTISRDNPKNTLFLRMTSLGSEDTAMYYCVRFYYGNSFVNWGQGTLVTVSA
VL: B10 VL with V13A, T28S, S46P, L52M, T69A, S99I, V102L, S106A, K109R, V110L
notes: as for B2

Assays:
human Claudin18.2 [1] = biological target: T1, human Claudin18.2 (human); assay: FACS, Claudin18.2-HEK293 cells
T1 construct: also called CLDN18.2
Procedure: (§1) The binding of chimeric antibodies to Claudin18.2 expressed on HEK293 cells was determine by FACS analysis. Briefly, HEK293 cells expressing human Claudin18.2 as prepared in the foregoing Example were harvested and incubated with anti-Claudin18.2 mAbs at 4° C. for 40 min, followed by fluorophore (iFluor 647)-labeled goat […] IgG (H+L) secondary antibodies at 4° C. for 0.5 hour. The samples were then analyzed by flow cytometry.
After initial screening of cell binding with transfected supernatants, the binding pattern of chimeric and up to 3 humanized antibodies on Claudin18.2 expressed on HEK293 cells were plotted with antibody in 3× serial dilutions, starting concentration of 45 μg/ml, following the protocol described in Example 3.

human Claudin18.2 [2] = biological target: T1, human Claudin18.2; assay: cell-based or functional assay
human Claudin18.2 [3] = biological target: T1, human Claudin18.2; assay: FACS, Claudin18.2-HEK293 cells; remark: listed apart in the source
Procedure: as §1

human Claudin18.2 [4] = biological target: T1, human Claudin18.2; assay: cell-based or functional assay; remark: listed apart in the source
human Claudin18.2 [5] = biological target: T1, human Claudin18.2; assay: FACS, Claudin18.2-HEK293 cells; remark: listed apart in the source
Procedure: as §1

Binder	EC50 (human Claudin18.2 [1]) [µg/mL]	Span (human Claudin18.2 [1])	ADCC % Relative activity (human Claudin18.2 [2]) [%]	ADCC EC50 (human Claudin18.2 [2]) [µg/mL]	EC50 (human Claudin18.2 [3]) [nM]	CDC % Relative activity (human Claudin18.2 [4]) [%]	CDC EC50 (human Claudin18.2 [4]) [µg/mL]	EC50 (human Claudin18.2 [5]) [nM]
B1	0.17	11800	114	0.0214	0.554	1300	0.207	
B2			77.8	0.0321	1.05	487	0.472	
B3								0.595
B4			138	0.0225	0.561	1320	0.205	
B5			399	0.00886	0.634	2100	0.101	
B6								0.533
B7			105	0.0237	1.17	666	0.345	
B8	0.0923	14800	169	0.0214	0.596	1170	0.231	
B9			25.7	0.103		3.04	69.9	0.65
B10			318	0.0111		2030	0.105	0.687
B11			144	0.0184		2430	0.0874	0.908
